{"source": "patent US10227575B2", "about": "“Multi-domain enzymes having cutinase activity, compositions comprising same and uses thereof” (OZYMES, priority 2015, dated 2019)", "key": {"[1]": {"protocol": "Molar masses of the samples were determined with universal calibration with the refractive index detector and the viscosity detector. The universal calibration curve was based on polystyrene standards [Polymer Laboratories (Amherst, Mass.) and Aldrich (Oakville, ON)] using the molar masses determined by the manufacturer and the intrinsic viscosities measured by the apparatus. The software OmniSEC™ software from Viscotek was used for data collection and calibration. Separation in THF was performed by injecting 100 μL of 1.5-2 mg/mL solutions of standards or samples into thermostatically controlled SuperRes™ columns [35° C.; PAS-102, PAS102.5, PAS-103L, each 300 mm×8 mm; PolyAnalytik (London, ON)]. The flow rate was 1 mL/min.\nAlternatively, a thin film was prepared from 1 g of commercial available PCL pellets and used for degradation. The polymer was dissolved in dichloromethane in a 1 L beaker. The solvent was allowed to evaporate overnight and the resulting film dried to constant weight under reduced pressure. Prior to enzymatic treatment the film was cut into pieces (20 mg) of approximately 1.5 cm×1.5 cm and thickness of approximately 0.1 mm. The reaction mixture was monitored by HPLC and SEC as described above.\nTo quantify this further, pellets of polycaprolactone (PCL) as well as films of PCL were incubated with KrCUT at various enzyme concentrations (1.25 μM, 2.5 μM, and 5 μM representing 4.7, 9.5 and 19 enzyme Units) at 37° C. The degradation of the polymer was followed over time by analyzing aliquots of the reaction mixture by HPLC for the detection of the released monomer (6-hydroxyhexanoic acid) and characterization of the remaining polymer by SEC after lypholization of the sample."}, "[2]": {"assay": "pH optimum in Universal Buffer", "assay_type": "biochemical", "conditions": "pH 5-11, p-nitrophenyl butyrate", "protocol": "(§1) Esterase activity was determined by monitoring the formation of pNP at 410 nm from various pNP-esters using a Beckman UV spectrophotometer (model DU 640) (21). Substrates were dissolved in isopropanol and were added to 50 mM sodium phosphate buffer pH 8.0 to give 10% (v/v) total isopropanol concentration in a 1 mL reaction volume. pNP-butyrate was used at a final concentration of 1.2 mM. For pNP-caprylate, myristate and palmitate, the final concentration ranged from 0.1 to 0.5 mM. The reaction (1 mL) was started by adding an appropriate amount of enzyme. One enzyme unit (U) is defined as the amount of enzyme that produced 1 μmol of product (pNP) per min; specific activity is expressed as U/mg protein. A molar extinction coefficient of 15 mM^−1 cm^−1 for pNP is used for calculating enzyme activity.\nUniversal Buffer solutions were prepared according to Britton and Robinson (Surinenaite et al., 2002), having the selected pH value from 5-11. Activity of KrCUT and KrCUT189 were measured at the indicated pH, using p-nitrophenyl butyrate as substrate as described in Example 1, section 1.6). Curves were obtained by plotting values of activity against pH."}, "[3]": {"assay": "Adsorption assay on PHB granules (Langmuir isotherm)", "assay_type": "binding", "protocol": "Purified KrCUT of concentrations ranging from 0.16 to 3.2 mg/mL were mixed with 25 mg PHB in 50 mM sodium phosphate (pH 8.0) in a total volume of 1 mL and mixed by gently shaking for 3 h. The PHB polymer was removed by centrifugation and the concentration of protein in the supernatant was determined by the BCA method. The concentration of bound protein at a particular concentration of cutinase was calculated as the difference between a control without added PHB and free cutinase after incubation with PHB.\nAdsorption assays were carried out following procedures of Kasuya et al. (1999). Purified KrCUT and KrCUT189 at concentrations ranging from 0.16 to 3.2 mg/mL were added to a suspension of 25 mg PHB in 50 mM sodium phosphate (pH 8.0) in a total volume 1 mL. The mixture was incubated at room temperature with gentle shaking for at least 3 h. The PHB polymer was removed by centrifugation and the concentration of protein in the supernatant was determined by the BCA method. The concentration of bound protein at a particular concentration of cutinase was calculated as the difference between a control without added PHB and free cutinase after incubation with PHB. An isotherm of [Bound](mg/mg PHB) vs [Free] (mM) was generated and binding parameters were determined by non-linear regression using the Langmuir equation:\n[formula] where [E]=Ead+[E]e, is the concentration of the protein added; Emax is the maximum amount of protein adsorbed on the polyester granules, and K is the adsorption equilibrium constant of the protein."}, "[4]": {"assay": "Substrate range on p-NP esters, KrCUT versus KrCUT189", "assay_type": "biochemical", "protocol": "as §1"}, "[5]": {"assay": "Degradation of poly(1,3-propylene adipate)", "conditions": "2.5 μM, after 24 hours"}}, "data": [{"molecule": "KrCUT189: truncated KrCUT lacking the T/P-rich linker and polymer-binding domain; cutinase catalytic domain, SEQ ID NO: 2 (protein, Kineococcus radiotolerans; (1)..(189) KrCUT catalytic domain (KrCUT189)) ATCSDVDVVFARGTGETPGLGVVGGPFVRSLTGELSDRTVTSHAVDYAASSSQASAGPGATAMSAHVREVAAACPSTRFVLGGYSQGATVTDIALGIRTGTTTGTPVPAELAGRVAAVVVFGNPLGLSGRTIATASSTYGPKSKDYCNSSDSVCGSAPKTGTGGHLSYASNGSTTDGARFAAGLVRAAG", "values": [{"measurement": "degradation of PCL pellets and PCL films compared with KrCUT", "setting": "[1]", "value": "Nearly identical results"}, {"measurement": "pH optimum", "setting": "[2]", "value": 8}, {"measurement": "binding to PHB", "setting": "[3]", "value": "no binding"}, {"measurement": "activity towards pNB-acetate", "setting": "[4]", "value": "little activity"}, {"measurement": "activity towards pNP-myristate compared to KrCUT", "setting": "[4]", "value": "higher"}, {"measurement": "activity with various substrates compared to the full length protein", "setting": "[4]", "value": "lower activity"}, {"measurement": "substrate giving the highest activity", "setting": "[4]; p-NP esters", "value": "pNP-myristate"}, {"measurement": "adipic acid found in the reaction mixture", "setting": "[5]", "value": 17, "unit": "%"}]}]}
